Here are results for eight molecules from patent publication US20140147444A1 (published 2014).

The labels stand for the following.
B1: human OPGbp [143-317] (ligand, UniProt O14788 143-317, looked up)
chain: EKAMVDGSWLDLAKRSKLEAQPFAHLTINATDIPSGSHKVSLSSWYHDRGWAKISNMTFSNGKLIVNQDGFYYLYANICFRHHETSGDLATEYLQLMVYVTKTSIKIPSSHTLMKGGSTKYWSGNSEFHFYSINVGGFFKLRSGEEISIEVSNPSLLDPDQDATYFGAFKVRDID
notes: also called OPGL

In experiment [1] the target is T1, soluble ODAR-Fc fusion (FLAG-human ODAR extracellular domain-human Fc) (human, UniProt Q9Y6Q6 30-212).
T1 construct: extracellular domain; also called sODAR-Fc; not shown: amino terminal FLAG tag; carboxy terminal human Fc region
T1 sequence (looked up): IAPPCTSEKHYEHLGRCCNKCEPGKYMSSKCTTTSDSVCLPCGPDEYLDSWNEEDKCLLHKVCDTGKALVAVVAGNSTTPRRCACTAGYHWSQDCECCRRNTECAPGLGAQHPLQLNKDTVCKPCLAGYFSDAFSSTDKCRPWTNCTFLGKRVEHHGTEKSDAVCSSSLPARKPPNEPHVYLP
In words: FRET competition, unlabelled OPGbp against OPGbp-Eu on sODAR-Fc, in TBS (positive control). The method, then:
(§1) A 1 hour preincubation with OPGbp was added for increased sensitivity. A soluble extracellular domain of human ODAR was constructed as a fusion polypeptide with an amino terminal FLAG tag and a carboxy terminal human Fc region. The Fc region is recognized and bound by a polyclonal goat anti-human Fc specific allophycocyanin (APC) which is detected by […] at 665 nm. […] Binding of OPGbp to ODAR in this assay triggers a fluorescent energy transfer and is highly sensitive for competition curves. A decrease in the A665/A620 absorbance ratio indicates inhibition of OPGbp binding to ODAR.
(§2) The Fab “Y” clone 1B4 was from the predominant 9 member pattern from one 96-well plate (all with same amino acid sequence) from the optimized plated OPGbp screen using a 1 μM OPGbp elution for 90 min. […] Similar IC50's were obtained with the duplicate preparations “A” and “B”.

Experiment [2] addresses T1, soluble ODAR-Fc fusion (FLAG-human ODAR …). In words: FRET competition, unlabelled OPGbp against OPGbp-Eu on sODAR-Fc, in PBS (positive control). On the procedure:
as §1, §2

Experiment [3] addresses B1. In words: phage ELISA on plated OPGbp [143-317].
Experiment [4] addresses B1. In words: cell-based or functional assay.
The target in experiment [5] is B1. In words: FRET competition, inhibition of OPGbp-Eu binding to sODAR-Fc. The method, then:
as §1, §2

Experiment [6] has as its target B1. In words: SPR (BIAcore), OPGbp on CM5 chip. The method, then:
(§3) The binding constant (Kd), on rate constant (ka) and off rate constant (kd) for Fabs “AT” and “Y” and “AT” antibody were determined by surface plasmon resonance techniques (BIAcore, Pharmacia, Piscataway, N.J.) and the results are shown in Table II. Fabs were prepared as described in Example 4 and “AT” antibody prepared as described in Example 7. OPGbp was immobilized on a CM5-chip by standard amine coupling. The Kd and rate constants were determined by BIAEVALUATION 3.0 software (Pharmacia).
On the technique in general: In SPR one partner is held on a chip, and binding of the other changes the refractive index at the surface.

In experiment [7] the target is B1. In words: FRET competition, inhibition of OPGbp-Eu binding to sODAR-Fc, in TBS. The method, then: as §1, §2
For experiment [8], the target named is B1. In words: FRET competition, inhibition of OPGbp-Eu binding to sODAR-Fc, in PBS. The method, then: as §1, §2
Experiment [9] deals with B1. In words: SPR (BIAcore), immobilized OPGbp [143-317].
The target in another experiment is T2, murine OPGbp[158-316] (murine, UniProt O35235 158-316).
T2 sequence: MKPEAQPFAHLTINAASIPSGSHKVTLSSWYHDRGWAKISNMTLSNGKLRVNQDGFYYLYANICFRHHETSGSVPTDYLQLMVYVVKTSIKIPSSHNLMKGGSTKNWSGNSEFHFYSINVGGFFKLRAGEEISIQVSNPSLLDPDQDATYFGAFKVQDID
In words: EIA on plates coated with murine OPGbp[158-316]. The method, then:
After overnight incubation, the protein solutions were removed from the plate and 200 μl of 5% Chicken Serum (Gibco/BRL Cat#16110-082) in PBST (PBS plus 0.05% Tween 20) was added to each well of the plate and plates were incubated at room temperature (RT) for 90 min with agitation. After incubation and blocking, plates were washed 4 times with 1×K-P wash solution in dH₂O (Cat#50-63-00, Kirkegaard & Perry Laboratories) and dried. […] Plates were incubated for three hours at room temperature with agitation, washed four times with 1× K-P wash solution and dried. Goat anti-human IgG (Fc) (Jackson ImmunoResearch, Cat#109-036-098) was diluted 1:5000 in 5% Chicken Serum in PBST and 100 μl was added to each well. […] 100 μl of undiluted ABTS substrate (Kirkegaard & Perry; Cat#50-66-00) was added to each well and the dish was incubated at room temperature until sufficient blue-green color developed. Color development was stopped by addition of 100 μl 1% SDS. Quantitation of color development was performed using a microtiter plate reader with detection at 405 nm.

Experiment [10] deals with B1. In words: SPR (BIAcore), OPGbp on CM5 chip (47 RU). On the procedure:
as §3

The target in experiment [11] is B1. In words: SPR (BIAcore), OPGbp on CM5 chip (147 RU). The method, then:
as §3

The target of experiment [12] is B1. In words: SPR (BIAcore), OPGbp on CM5 chip (80 RU). On the procedure: as §3
Experiment [13] concerns the target B1. In words: SPR (BIAcore), immobilized OPGbp [143-317]. The source holds these as a separate data set.

Values joined by “and” are separate entries in the source; they are usually repeats but may differ in a detail not shown here. Equal entries are not always repeated.

As to B1, the concentration for half-maximal inhibition (IC50) in experiment [1] stood at 0.89 nM; in experiment [2], 0.93 nM.

B2: Fab “S” (Fab, V domains shown)
VH: EVQLLESGGGLVQPGRSLRLSCAASGFTFDDYAMHWVRQAPGKGLEWVSGISWNSGRIGYADSVKGRFTISRDNAKNSLYLQMNSLRPEDTAFYYCAKGGSTSARYSSGWYYWGQGTLVTVSS
VL: QSVLTQPPSVSVSPGQTATITCSGDALPKQYVYWYRQKPGQAPLLVIYEDSERPSGIPERFSGSSSGTEVTLSISGVQAEDEADYYCQSTDSSGTYVVFGGGTKLTVLS
notes: also called Fab pattern “S”
As to B2, the binding result with human OPGbp [143-317] [3] is reported as “binds”.

B3: human OPG [22-194]-Fc (Fc fusion, UniProt O00300 22-194, looked up, not shown: a dimerising Fc or GST)
chain: ETFPPKYLHYDEETSHQLLCDKCPPGTYLKQHCTAKWKTVCAPCPDHYYTDSWHTSDECLYCSPVCKELQYVKQECNRTHNRVCECKEGRYLEIEFCLKHRSCPPGFGVVQAGTPERNTVCKRCPDGFFSNETSSKAPCRKHTNCSVFGLLLTQKGNATHDNICSGNSESTQK
For B3, in the experiment with human OPGbp [143-317] [4], the “RAW cell assay, IC50, positive control” value was 0.033 µg/mL.

B4: Fab “AT” (Fab, V domains shown)
VH: QVQLVQSGAEVRKPGASVKVSCKASGYDFSNYAIHWVRQAPGQRLEWMGWINAGNGNTKFSQKFQGRITVTRDTAASTAYMELRSLRSEDTAVYYCARDSSNMVRGIIIAYYFDYWGQGTLVTVSS
VL: EIVMTQSPSSLSASVGDRVTITCRASQSISRYLNWYQLKPGKAPRLLIYGASSLQSGVPSRFSGSGSGAEFTLTISSLQPEDIATYYCQHTRAFGQGTKVEIKR
notes: Soluble Fab from E. coli periplasm purified on Talon resin; also called soluble Fab “AT”; Fab pattern “AT”
Consider B4, for which the IC50 with human OPGbp [143-317] [5] is 550 nM; in the experiment with human OPGbp [143-317] [7] it was 354 nM; in the experiment with human OPGbp [143-317] [8] it was 440 nM. The molecule also returned a Kd with human OPGbp [143-317] [6] of 140 nM. Moreover, the koff is 0.31 s⁻¹ in the experiment with human OPGbp [143-317] [6] and 0.284 s⁻¹ with human OPGbp [143-317] [9]. In the experiment with human OPGbp [143-317] [6], this molecule returned a kon of 2.2e+06 M⁻¹ s⁻¹. In addition, the “RAW cell assay (TRAP, OD405), IC50” value with human OPGbp [143-317] [4] was 15 µg/ml and 300 nM. Also, the “murine bone marrow assay, TRAP activity in solution (pNPP), 50% decrease (IC50)” value in the experiment with human OPGbp [143-317] [4] came to 57.8 nM.

B5: Fab “Y” (Fab, V domains shown)
VH: EVQLVQSGAEVRKPGASVKVSCKASGYDFSNYAIHWVRQAPGQRLEWMGWINAGNGNTKFSQKFQGRITVTRDTAASTAYMELRSLRSEDTAVYYCARDSSNMVRGIIIAYYFDYWGQGTLVTVSS
VL: EIVLTQSPATLSFSPGERATLSCRASQSVGSYLAWYQQRPGQAPRPLIYDATNRATGIPTRFSGSGSGTDFTLTISSLEPEDFATYYCQHRRTFGRGTKLEIKR
notes: also called soluble Fab “Y”; Fab pattern “Y”
For B5, the IC50 in the experiment with human OPGbp [143-317] [5] stood at 6000 nM. In the experiment with human OPGbp [143-317] [6], this molecule registered a Kd of 594 nM, a koff of 0.00591 s⁻¹ and an on-rate constant (kon) of 9440 M⁻¹ s⁻¹. For the same molecule, the IC50 in the experiment with human OPGbp [143-317] [7] was 4100 nM.

B6: “AT” antibody (full-length human IgG1) (antibody, V domains shown)
VH: QVQLVQSGAEVRKPGASVKVSCKASGYDFSNYAIHWVRQAPGQRLEWMGWINAGNGNTKFSQKFQGRITVTRDTAASTAYMELRSLRSEDTAVYYCARDSSNMVRGIIIAYYFDYWGQGTLVTVSS
VL: EIVMTQSPSSLSASVGDRVTITCRASQSISRYLNWYQLKPGKAPRLLIYGASSLQSGVPSRFSGSGSGAEFTLTISSLQPEDIATYYCQHTRAFGQGTKVEIKR
notes: Expressed in CHO cells; also called “AT” Ab; not shown: human IgG1 CH1, hinge, CH2 and CH3
For B6, the binding result with murine OPGbp[158-316] is on record as “no binding (tested: 2 ug/ml down to 1.953 ng/ml)”. In the experiment with human OPGbp [143-317] [10], this molecule returned a Kd of 0.43 nM, a koff of 0.0031 s⁻¹ and a kon of 7.3e+06 M⁻¹ s⁻¹. Further, in the experiment with human OPGbp [143-317] [11], binding was put at a Kd of 0.42 nM, the dissociation rate constant (koff) is 0.0024 s⁻¹ and the association rate constant (kon) was 5.7e+06 M⁻¹ s⁻¹. In the experiment with human OPGbp [143-317] [12], this molecule came in with a Kd of 0.33 nM, an off-rate (koff) of 0.0027 s⁻¹ and an on-rate (kon) of 8.1e+06 M⁻¹ s⁻¹. Further, in the experiment with human OPGbp [143-317] [4], the “RAW cell assay, IC50, preparation “AT”405” value is 3 ug/ml and 20.1 nM; the “RAW cell assay, IC50, preparation “AT”406” value was 60.3 nM and 9 ug/ml; the “RAW cell assay, IC50, preparation “AT”407” value was 21.4 nM and 3.2 ug/ml; the “bone marrow assay, inhibition of TRAP formation, IC50, preparation “AT”406” value was 2.35 µg/ml and 14.4 nM. In the experiment with human OPGbp [143-317] [4], the “murine bone marrow assay, IC50, preparation “AT”405” value is 2.15 ug/ml and 14.4 nM; the “murine bone marrow assay, IC50, preparation “AT”407” value is 1.85 ug/ml and 12.5 nM. In the experiment with human OPGbp [143-317] [13], this molecule yielded a Kd of 1.18 nM, a koff of 0.002 s⁻¹ and a kon of 1.7e+06 M⁻¹ s⁻¹.

B7: “AT” Fab variant Y(100g)A (heavy chain CDR3) (Fab, name in Kabat numbering, V domains shown)
VH: QVQLVQSGAEVRKPGASVKVSCKASGYDFSNYAIHWVRQAPGQRLEWMGWINAGNGNTKFSQKFQGRITVTRDTAASTAYMELRSLRSEDTAVYYCARDSSNMVRGIIIAAYFDYWGQGTLVTVSS
VL: EIVMTQSPSSLSASVGDRVTITCRASQSISRYLNWYQLKPGKAPRLLIYGASSLQSGVPSRFSGSGSGAEFTLTISSLQPEDIATYYCQHTRAFGQGTKVEIKR
In the experiment with human OPGbp [143-317] [9], B7 displayed an off-rate (koff) of 0.074 s⁻¹.

B8: “AT” Fab variant Y(100h)A (heavy chain CDR3) (Fab, name in Kabat numbering, V domains shown)
VH: QVQLVQSGAEVRKPGASVKVSCKASGYDFSNYAIHWVRQAPGQRLEWMGWINAGNGNTKFSQKFQGRITVTRDTAASTAYMELRSLRSEDTAVYYCARDSSNMVRGIIIAYAFDYWGQGTLVTVSS
VL: EIVMTQSPSSLSASVGDRVTITCRASQSISRYLNWYQLKPGKAPRLLIYGASSLQSGVPSRFSGSGSGAEFTLTISSLQPEDIATYYCQHTRAFGQGTKVEIKR
B8 registered an off-rate constant (koff) with human OPGbp [143-317] [9] of 0.368 s⁻¹.

What is called IC50 is the concentration at which inhibition is half-maximal. The low end stands for greater potency, the high end for weaker potency. Broadly, the Kd is the concentration at which binding is half-saturated. Low readings indicate higher affinity, high ones lower affinity. As usually defined, the koff is a measure of how fast the partners let go of each other. Low readings indicate slow dissociation, high ones fast dissociation. Usually kon stands for a measure of how fast the partners come together. A low value points to slow association.
